Results reported in US20250270332A1.
Blank lines part the entries; values can stand above or below the binder they belong to.

Target: FZD1/2/4/5/7/8
Test: cell-based or functional assay

% Wnt Maxima Avg: 42%
EC50 (nM), TOPFLASH assay: 0.4 nM
Maximal Signal (% Wnt3a maxima) (% Wnt3a maxima): 42
Topflash EC50 (nM) Avg: 0.4 nM
B1: CT0003 (bispecific antibody)
chain 1: MNLLLILTFVAAAVAEFEVQLVESGGGLVQPGGSLRLSCAASGFNISSYYIHWVRQAPGKGLEWVASIYSSYGYTSYADSVKGRFTISADTSKNTAYLQMNSLRAEDTAVYYCARTVRGSKKPYFSGWAMDYWGQGTLVTVSSGGGGSDIQMTQSPSSLSASVGDRVTITCRASQSVSSAVAWYQQKPGKAPKLLIYSASSLYSGVPSRFSGSRSGTDFTLTISSLQPEDFATYYCQQYSWGPFTFGQGTKVEIKLEDKTHTKVEPKSSDKTHNCPPCPAPELLGGPSVFLFPPKPKDTLMISRTPEVTCVVVDVSHEDPEVKFNWYVDGVEVHNAKTKPREEQYNSTYRVVSVLTVLHQDWLNGKEYKCKVSNKALPAPIEKTISKAKGQPREPQVYTLPPIRELMTSNQVSLSCAVKGFYPSDIAVEWESNGQPENNYKTTPPVLDSDGSFFLVSKLTVDKSRWQQGNVFSCSVMHEALHNHYTQKSLSLSPGKSGSETPGTSESATPESGGGEVQLVESGGGLVQPGGSLRLSCAASGFNIHSSSIHWVRQAPGKGLEWVAATYSSFGSITYADSVKGRFTISADTSKNTAYLQMNSLRAEDTAVYYCARYHHPFGYALDYWGQGTLVTVSSGTTAASGSSGGSSSGADIQMTQSPSSLSASVGDRVTITCRASQSVSSAVAWYQQKPGKAPKLLIYSASSLYSGVPSRFSGSRSGTDFTLTISSLQPEDFATYYCQQGVYLFTFGQGTKVEIK
chain 2: MNLLLILTFVAAAVAEFEVQLVESGGGLVQPGGSLRLSCAASGFNISYSSIHWVRQAPGKGLEWVAYISSYYGYTYYADSVKGRFTISADTSKNTAYLQMNSLRAEDTAVYYCARAHYFPWAGAMDYWGQGTLVTVSSGGGGDIQMTQSPSSLSASVGDRVTITCRASQSVSSAVAWYQQKPGKAPKLLIYSASSLYSGVPSRFSGSRSGTDFTLTISSLQPEDFATYYCQQYYWPITFGQGTKVEIKLEDKTHTKVEPKTSDKTHTCPPCPAPELLGGPSVFLFPPKPKDTLMISRTPEVTCVVVDVSHEDPEVKFNWYVDGVEVHNAKTKPREEQYNSTYRVVSVLTVLHQDWLNGKEYKCKVSNKALPAPIEKTISKAKGQPREPMVFDLPPSREEMTKNQVSLWCMVKGFYPSDIAVEWESNGQPENNYKTTPPVLDSDGSFFLYSKLTVDKSRWQQGNVFSCSVMHEALHNHYTQKSLSLSPGKSGSETPGTSESATPESGGGEVQLVESGGGLVQPGGSLRLSCAASGFNIHSSSIHWVRQAPGKGLEWVAATYSSFGSITYADSVKGRFTISADTSKNTAYLQMNSLRAEDTAVYYCARYHHPFGYALDYWGQGTLVTVSSGTTAASGSSGGSSSGADIQMTQSPSSLSASVGDRVTITCRASQSVSSAVAWYQQKPGKAPKLLIYSASSLYSGVPSRFSGSRSGTDFTLTISSLQPEDFATYYCQQGVYLFTFGQGTKVEIK

EC50 (nM), TOPFLASH assay: 0.4 nM
Maximal Signal (% Wnt3a maxima) (% Wnt3a maxima): 42
B3: Fab-Dia (bispecific antibody)
heavy: EVQLVESGGGLVQPGGSLRLSCAASGFNIHSSSIHWVRQAPGKGLEWVAATYSSFGSITYADSVKGRFTISADTSKNTAYLQMNSLRAEDTAVYYCARYHHPFGYALDYWGQGTLVTVSSASTKGPSVFPLAPSSKSTSGGTAALGCLVKDYFPEPVTVSWNSGALTSGVHTFPAVLQSSGLYSLSSVVTVPSSSLGTQTYICNVNHKPSNTKVDKKVEPKSCDKTHTGGSGGEVQLVESGGGLVQPGGSLRLSCAASGFTISYSSIHWVRQAPGKGLEWVASISPYYGYTYYADSVKGRFTISADTSKNTAYLQMNSLRAEDTAVYYCARSSYFPWFSAMDYWGQGTLVTVSSGGGGSDIQMTQSPSSLSASVGDRVTITCRASQSVSSAVAWYQQKPGKAPKLLIYSASSLYSGVPSRFSGSRSGTDFTLTISSLQPEDFATYYCQQYYWPITFGQGTKVEIK
light: DIQMTQSPSSLSASVGDRVTITCRASQSVSSAVAWYQQKPGKAPKLLIYSASSLYSGVPSRFSGSRSGTDFTLTISSLQPEDFATYYCQQGVYLFTFGQGTKVEIKRTVAAPSVFIFPPSDEQLKSGTASVVCLLNNFYPREAKVQWKVDNALQSGNSQESVTEQDSKDSTYSLSSTLTLSKADYEKHKVYACEVTHQGLSSPVTKSFNRGECGGGGSEVQLVESGGGLVQPGGSLRLSCAASGFTISSYYIHWVRQAPGKGLEWVASIYSSYGYTSYADSVKGRFTISADTSKNTAYLQMNSLRAEDTAVYYCARTVRGSKKPYFSGWAMDYWGQGTLVTVSSGGGGSDIQMTQSPSSLSASVGDRVTITCRASQSVSSAVAWYQQKPGKAPKLLIYSASSLYSGVPSRFSGSRSGTDFTLTISSLQPEDFATYYCQQYYFLITFGQGTKVEIK

Second part, the binder before the results:

B2: CH3 (Dia-CH3-Dia) (bispecific antibody)
chain: MNLLLILTFVAAAVAEFEVQLVESGGGLVQPGGSLRLSCAASGFNIGSSSIHWVRQAPGKGLEWVASIYSAFASTSYADSVKGRFTISADTSKNTAYLQMNSLRAEDTAVYYCARYHFPFGFALDYWGQGTLVTVSSGGGGSDIQMTQSPSSLSASVGDRVTITCRASQSVSSAVAWYQQKPGKAPKLLIYSASSLYSGVPSRFSGSRSGTDFTLTISSLQPEDFATYYCQQGVYLFTFGQGTKVEIKDKTHTKVEPKTSDKTHTCPPCPGQPREPQVYTLPPSREEMTKNQVSLTCLVKGFYPSDIAVEWESNGQPENNYKTTPPVLDSDGSFFLYSKLTVDKSRWQQGNVFSCSVMHEALHNHYTQKSLSLSPGKGTTAASGSSGGSSSGAGRTEVQLVESGGGLVQPGGSLRLSCAASGFNISYSSIHWVRQAPGKGLEWVAYISSYYGYTYYADSVKGRFTISADTSKNTAYLQMNSLRAEDTAVYYCARAHYFPWAGAMDYWGQGTLVTVSSGGGGSDIQMTQSPSSLSASVGDRVTITCRASQSVSSAVAWYQQKPGKAPKLLIYSASSLYSGVPSRFSGSRSGTDFTLTISSLQPEDFATYYCQQYSWGPFTFGQGTKVEIK
Maximal Signal (% Wnt3a maxima) (% Wnt3a maxima): 22

B4: CM0011 (Dia-Fc-Dia) (bispecific antibody)
chain 1: MNLLLILTFVAAAVAEFEVQLVESGGGLVQPGGSLRLSCAASGFNIGSSSIHWVRQAPGKGLEWVASIYSAFASTSYADSVKGRFTISADTSKNTAYLQMNSLRAEDTAVYYCARYHFPFGFALDYWGQGTLVTVSSGGGGSDIQMTQSPSSLSASVGDRVTITCRASQSVSSAVAWYQQKPGKAPKLLIYSASSLYSGVPSRFSGSRSGTDFTLTISSLQPEDFATYYCQQGVYLFTFGQGTKVEIKLEDKTHTKVEPKSSDKTHNCPPCPAPELLGGPSVFLFPPKPKDTLMISRTPEVTCVVVDVSHEDPEVKFNWYVDGVEVHNAKTKPREEQYNSTYRVVSVLTVLHQDWLNGKEYKCKVSNKALPAPIEKTISKAKGQPREPQVYTLPPIRELMTSNQVSLSCAVKGFYPSDIAVEWESNGQPENNYKTTPPVLDSDGSFFLVSKLTVDKSRWQQGNVFSCSVMHEALHNHYTQKSLSLSPGKSGSETPGTSESATPESGGGEVQLVESGGGLVQPGGSLRLSCAASGFNISSYYIHWVRQAPGKGLEWVASIYSSYGYTSYADSVKGRFTISADTSKNTAYLQMNSLRAEDTAVYYCARTVRGSKKPYFSGWAMDYWGQGTLVTVSSGGGGSDIQMTQSPSSLSASVGDRVTITCRASQSVSSAVAWYQQKPGKAPKLLIYSASSLYSGVPSRFSGSRSGTDFTLTISSLQPEDFATYYCQQYSWGPFTFGQGTKVEIK
chain 2: MNLLLILTFVAAAVAEFEVQLVESGGGLVQPGGSLRLSCAASGFNIGSSSIHWVRQAPGKGLEWVASIYSAFASTSYADSVKGRFTISADTSKNTAYLQMNSLRAEDTAVYYCARYHFPFGFALDYWGQGTLVTVSSGGGGSDIQMTQSPSSLSASVGDRVTITCRASQSVSSAVAWYQQKPGKAPKLLIYSASSLYSGVPSRFSGSRSGTDFTLTISSLQPEDFATYYCQQGVYLFTFGQGTKVEIKLEDKTHTKVEPKTSDKTHTCPPCPAPELLGGPSVFLFPPKPKDTLMISRTPEVTCVVVDVSHEDPEVKFNWYVDGVEVHNAKTKPREEQYNSTYRVVSVLTVLHQDWLNGKEYKCKVSNKALPAPIEKTISKAKGQPREPMVFDLPPSREEMTKNQVSLWCMVKGFYPSDIAVEWESNGQPENNYKTTPPVLDSDGSFFLYSKLTVDKSRWQQGNVFSCSVMHEALHNHYTQKSLSLSPGKSGSETPGTSESATPESGGGEVQLVESGGGLVQPGGSLRLSCAASGFNISYSSIHWVRQAPGKGLEWVAYISSYYGYTYYADSVKGRFTISADTSKNTAYLQMNSLRAEDTAVYYCARAHYFPWAGAMDYWGQGTLVTVSSGGGGSDIQMTQSPSSLSASVGDRVTITCRASQSVSSAVAWYQQKPGKAPKLLIYSASSLYSGVPSRFSGSRSGTDFTLTISSLQPEDFATYYCQQYYWPITFGQGTKVEIK
% Wnt Maxima Avg: 63%
EC50 (nM), TOPFLASH assay: 0.3 nM
Maximal Signal (% Wnt3a maxima) (% Wnt3a maxima): 63
Topflash EC50 (nM) Avg: 0.3 nM
